We go through one molecule from patent US20120328616A1 (Amgen, published 2012).

Experiment [1] deals with T1, huBeta_Klotho (1-633, 852-1044) (muBeta KLOTHO 632G-849Q) (human; murine, UniProt Q86Z14 1-1044).
T1 construct: also called Chimera 10; Construct 10
The experiment in a line: flow cytometry, transfected HEK-293T. (In general: In flow cytometry, cells or beads pass a laser one at a time.)

Another experiment deals with T2, murine β-Klotho (murine, UniProt Q99N32 1-1043).
T2 construct: Full length (GenBank NP-112457), transiently expressed on HEK-293T cells; also called mu β-klotho; mouse β-Klotho
T2 sequence: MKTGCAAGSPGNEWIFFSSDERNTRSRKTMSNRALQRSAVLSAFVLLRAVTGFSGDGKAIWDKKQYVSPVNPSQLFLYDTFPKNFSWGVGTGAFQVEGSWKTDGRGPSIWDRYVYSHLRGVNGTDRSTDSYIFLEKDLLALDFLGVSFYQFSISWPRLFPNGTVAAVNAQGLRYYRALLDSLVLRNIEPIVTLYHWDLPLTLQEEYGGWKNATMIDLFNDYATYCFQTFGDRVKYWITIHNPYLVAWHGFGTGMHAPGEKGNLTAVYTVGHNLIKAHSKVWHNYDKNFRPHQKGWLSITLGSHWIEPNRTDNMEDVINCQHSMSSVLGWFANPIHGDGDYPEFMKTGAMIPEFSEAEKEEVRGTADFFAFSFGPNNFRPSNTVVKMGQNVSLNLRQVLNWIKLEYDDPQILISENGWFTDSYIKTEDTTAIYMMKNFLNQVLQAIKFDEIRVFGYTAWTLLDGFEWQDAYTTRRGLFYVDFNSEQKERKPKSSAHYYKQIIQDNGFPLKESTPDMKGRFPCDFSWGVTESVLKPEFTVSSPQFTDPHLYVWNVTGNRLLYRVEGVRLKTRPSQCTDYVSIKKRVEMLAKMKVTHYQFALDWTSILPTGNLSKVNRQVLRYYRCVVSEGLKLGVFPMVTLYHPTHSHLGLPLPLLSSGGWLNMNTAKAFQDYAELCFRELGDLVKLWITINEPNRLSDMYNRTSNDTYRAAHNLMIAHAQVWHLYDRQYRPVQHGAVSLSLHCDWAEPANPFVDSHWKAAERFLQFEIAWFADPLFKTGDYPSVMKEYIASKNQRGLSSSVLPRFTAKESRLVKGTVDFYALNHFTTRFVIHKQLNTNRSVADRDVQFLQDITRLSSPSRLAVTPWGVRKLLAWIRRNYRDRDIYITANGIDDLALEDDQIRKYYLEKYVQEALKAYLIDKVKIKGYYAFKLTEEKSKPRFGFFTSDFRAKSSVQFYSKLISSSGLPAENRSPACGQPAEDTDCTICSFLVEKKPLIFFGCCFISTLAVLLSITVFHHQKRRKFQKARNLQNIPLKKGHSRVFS
Description: flow cytometry, transfected HEK-293T.

Experiment [2] addresses T3, huBeta_Klotho (1-736, 967-1044) (muBeta KLOTHO 735A-963S) (human; murine, UniProt Q86Z14 1-1044).
T3 construct: also called Chimera 11; Construct 11
Description: flow cytometry, transfected HEK-293T.

Experiment [3] has as its target T4, huBeta_Klotho (1-507) (muBetaKLOTHO 506F-1045S) (human; murine, UniProt Q99N32 1-1043).
T4 construct: also called Chimera 2; Construct 2
Description: flow cytometry, transfected HEK-293T.

Experiment [4] has as its target T5, huBeta_Klotho (1-301, 509-743, 967-1044) (muBeta KLOTHO 302-506, 742-964) (human; murine, UniProt Q86Z14 1-1044).
T5 construct: also called Chimera 14; Construct 14
T5 chain: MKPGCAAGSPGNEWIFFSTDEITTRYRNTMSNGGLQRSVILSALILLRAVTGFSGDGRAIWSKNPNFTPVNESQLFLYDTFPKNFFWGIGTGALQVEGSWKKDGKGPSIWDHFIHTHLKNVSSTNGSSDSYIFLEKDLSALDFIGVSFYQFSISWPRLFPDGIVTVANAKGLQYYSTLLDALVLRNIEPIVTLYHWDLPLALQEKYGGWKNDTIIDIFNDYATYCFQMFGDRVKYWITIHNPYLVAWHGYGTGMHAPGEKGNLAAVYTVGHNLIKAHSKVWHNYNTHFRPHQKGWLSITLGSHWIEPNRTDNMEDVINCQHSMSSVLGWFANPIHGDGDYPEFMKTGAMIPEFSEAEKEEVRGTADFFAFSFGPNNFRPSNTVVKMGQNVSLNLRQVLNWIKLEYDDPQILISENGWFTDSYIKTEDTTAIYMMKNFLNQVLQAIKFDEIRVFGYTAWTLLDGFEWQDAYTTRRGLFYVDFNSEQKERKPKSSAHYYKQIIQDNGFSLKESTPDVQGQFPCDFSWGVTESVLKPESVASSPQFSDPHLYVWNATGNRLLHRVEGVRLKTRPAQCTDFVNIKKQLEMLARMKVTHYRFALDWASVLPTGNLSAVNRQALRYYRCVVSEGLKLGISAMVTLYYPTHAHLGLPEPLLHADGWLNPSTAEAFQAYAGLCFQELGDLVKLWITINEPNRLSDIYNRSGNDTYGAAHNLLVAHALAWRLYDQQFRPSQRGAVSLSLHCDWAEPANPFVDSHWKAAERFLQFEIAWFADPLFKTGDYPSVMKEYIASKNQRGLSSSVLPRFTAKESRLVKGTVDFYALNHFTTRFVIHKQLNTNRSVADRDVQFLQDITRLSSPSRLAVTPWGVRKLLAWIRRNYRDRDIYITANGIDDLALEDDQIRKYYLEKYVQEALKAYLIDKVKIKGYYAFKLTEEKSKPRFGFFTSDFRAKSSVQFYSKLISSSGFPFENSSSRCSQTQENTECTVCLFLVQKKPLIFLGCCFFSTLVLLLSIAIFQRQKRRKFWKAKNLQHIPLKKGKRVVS
The experiment in a line: flow cytometry, transfected HEK-293T.

The target in a further experiment is T6, human FGFR1c (human, UniProt P11362 22-822).
T6 construct: Full length (GenBank NP-075598), expressed on transfected 293T cells; also called huFGFR1c; FGFR1c alone
The experiment in a line: flow cytometry, transfected HEK293T.

B1: 54A1.1 (antibody, V domains shown)
VH: QVQLVQSGAEVKKPGASVKVSCKASGYTFTSYDINWVRQATGQGLEWMGWMNPHSGNTGYAQKFQGRVTMTRNTSINTAYMELSSLRSEDTAVYYCAKYNWNYGAFDFWGQGTMVTVSS
VL: DIQMAQSPSSLSASVGDRVTITCQASQDISIYLNWYQLKPGKAPKLLIYDVSNLETGVPSRFSGGGSGTDFTFTISSLQPEDIATYYCQQYDNLPLTFGPGTKVDIKR
Consider B1, for which the binding result is “binds” in experiment [1]; “no binding” with murine β-Klotho; “binds” in experiment [2]; “binds” in experiment [3]; “no binding” in experiment [4]; “no binding” with human FGFR1c.
